Assay results: patent publication US10005846B2, “Anti-transglutaminase 2 antibodies” (MEDICAL RESEARCH COUNCIL TECHNOLOGY, priority 2012, dated 2018)
Residue numbers refer to the chain shown, from its start.

B1: DC1: murine monoclonal anti-TG2 IgG, Group 1; VL SEQ ID NO: 70, VH SEQ ID NO: 71 (antibody, V domains shown)
VH: EVQLVESGGGLVKPGGSLKLSCAASGFTLSTHAMSWVRQTPEKRLEWVATISSGGRSTYYPDSVKGRFTISRDNVKNTLYLQLSSLRSEDTAVYFCARLISTYWGQGTTLTVSS
VL: DITMTQSPSSIYASLGERVTITCKASQDINSYLTWFQQKPGKSPKILIYLVNRLVDGVPSRFSGSGSGQDYALTISSLEYEDMGIYYCLQYDDFPYTFGGGTKLEIK
modifications: DC-1 heavy chain variable region; DC-1 light chain variable region
B2: EH6: murine monoclonal anti-TG2 IgG, Group 1; VH and VK in FIG. 22 (antibody, V domains shown)
VH: EVQLQQSGPELVKPGASVKMSCKASGYTFTSYVMHWVKQKPGQGLEWIGFINPYNDGTKYNEKFKGKATLTSDKASTTAYMELSSLTSEDSAVYYCARFSSGYWGQGTTLTVSS
VL: DVLMTQTPLSLPVSLGDQASISCRSSQSIVHSNGNTYLEWYLQKPGQSPKLLIYKVSNRFSGVPDRFSGSGSGTDFTLKISRVGAEDLGVYYCLQVSHVPFTFGSGTKLEIK
B3: AG9: murine TG2 inhibitory monoclonal antibody; VH and VK in FIG. 23 (antibody, V domains shown)
VH: B2 VH with K23R, S31T, M34I, F50Y, T58A, K59R, A75S, F99L, G102D
VL: B2 VL with T7N, Q27R, V30E, L51F, K79R, R82S, G84E, L94F, V96G, S105G
B4: JE12: murine monoclonal anti-TG2 IgG, Group 1; VH and VK in FIG. 21 (antibody, V domains shown)
VH: B2 VH with T28R, P41S, F50Y, T58A, A75S, T77S, F99L, G102D
VL: B2 VL with T7N, V30E, S32I, L51F, K79R, G84E, V90I, L94F, V96G, S105G
B5: AH3: murine TG2 inhibitory monoclonal antibody; VH and VK in FIG. 24 (antibody, V domains shown)
VH: B2 VH with K23R, S31T, M34I, F50Y, T58A, K59R, A75S, F99L, G102D
VL: B2 VL with T7N, Q27R, V30E, L51F, K79R, R82S, G84E, L94F, V96G, S105G
B6: BB7: murine monoclonal anti-TG2 IgG, Group 1; VL SEQ ID NO: 60, VH SEQ ID NO: 61 (antibody, V domains shown)
VH: AVQLVESGGGLVKPGGSLKLSCAASGIIFSSSAMSWVRQTPEKRLEWVATISSGGRSTYYPDSVKGRFTVSRDSAKNTLYLQMDSLRSEDTAIYYCAKLISPYWGQGTTLTVSS
VL: AIKMTQSPSSMYASLGERVIITCKASQDINSYLTWFQQKPGKSPKTLIYLTNRLMDGVPSRFSGSGSGQEFLLTISGLEHEDMGIYYCLQYVDFPYTFGGGTKLEIK
modifications: BB-7 heavy chain variable region; BB-7 light chain variable region

What was measured:
[1] = target: T1, human TG2 (Homo sapiens, UniProt P21980); assay: 3H-putrescine incorporation TG activity assay with recombinant human TG2; assay type: biochemical; details: for hybridoma supernatant ability to inhibit TG2 activity: initial screen of conditioned medium, 100 ng of TG2
T1 sequence (P21980 1-687): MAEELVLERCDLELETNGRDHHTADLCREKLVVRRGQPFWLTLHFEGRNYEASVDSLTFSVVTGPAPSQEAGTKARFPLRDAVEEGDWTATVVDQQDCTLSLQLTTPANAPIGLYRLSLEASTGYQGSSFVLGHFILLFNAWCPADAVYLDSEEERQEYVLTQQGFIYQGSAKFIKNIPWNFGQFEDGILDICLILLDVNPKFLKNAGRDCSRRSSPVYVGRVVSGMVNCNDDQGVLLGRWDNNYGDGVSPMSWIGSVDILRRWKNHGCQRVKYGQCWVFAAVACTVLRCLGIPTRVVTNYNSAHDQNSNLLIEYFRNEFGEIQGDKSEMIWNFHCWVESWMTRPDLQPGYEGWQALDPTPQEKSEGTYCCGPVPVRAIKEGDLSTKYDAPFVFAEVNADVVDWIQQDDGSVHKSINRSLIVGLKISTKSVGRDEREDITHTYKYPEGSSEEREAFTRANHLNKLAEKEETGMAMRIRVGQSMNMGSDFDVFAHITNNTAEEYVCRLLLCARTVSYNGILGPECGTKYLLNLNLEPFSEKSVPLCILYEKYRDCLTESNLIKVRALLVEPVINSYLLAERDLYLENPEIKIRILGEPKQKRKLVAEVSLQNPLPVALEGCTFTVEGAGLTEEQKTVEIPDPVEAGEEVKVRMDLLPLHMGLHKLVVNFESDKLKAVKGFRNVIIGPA
Experimental: To determine an IC50 value for each antibody against human, rat and mouse the ^3H Putrescine assay was used. 100 ng of human TG2 or 25 ng of mouse and rat TG2 was used to generate a reaction where approximately 3000 cpm of Putrescine were incorporated per hour in 10 ul of the reaction mixture. Serial dilutions of each antibody were then applied starting from adding 500 ng (5 ug/ml final concentration) to the reaction mixture and incubated with the TG2 for 20 minutes prior to activating the reaction. IC50 values were calculated by determining the concentration at which the enzymatic rate of reaction was reduced by 50% using an appropriate curve fit in graphpad prism. Values are expressed as the amount of IgG in […] in the reaction that would inhibit 1 ng of TG2.
TG activity is measured by the Ca^2+ dependent incorporation of ^3H-putrescine into N′,N′-dimethylcasein. Recombinant human TG2 (100 ng) was pre-incubated for twenty minutes at room temperature with the test sample (conditioned medium or purified IgG) before starting the reaction. Twenty-five μl of reaction mix (5 μl of 25 mM CaCl2, 5 μl of 40 mM dithiothreitol, 5 μl ^3H-putrescine mix, and 10 μl 25 mg/ml of N,N′ dimethylcasein (replace 25 mM CaCl2 with 100 mM EDTA for a non-enzymatic control) was added to start the reaction and the samples incubated at 37° C. for up to 1 hour. Aliquots of 10 μl were spotted onto a strip of 3 MM Whatman filter paper and plunged immediately into ice-cold 10% trichloroacetic acid (TCA) in order to precipitate the cross-linked proteins typically at time 0, 10, 30 and 60 minutes into the reaction. After three extensive washes in ice-cold 5% TCA followed by 3 rinses with ice-cold 95% ethanol, the air dried filter was counted in 2 ml of scintillation fluid (Ultima Gold Packard, Perkin Elmer). The rate of reaction was calculated. 1 TG unit is equivalent to the incorporation of 1 nmol of putrescine per hour at 37° C.

[2] = target: T2, extracellular TG2 in human HK-2 cells (Homo sapiens, UniProt P21980); assay: Extracellular TG activity in HK-2 cells, biotin cadaverine incorporation into fibronectin (Example 1); assay type: cell-based
T2 construct: endogenous in cells; host or cells: HK-2 (kidney proximal tubular epithelium)
T2 sequence (P21980 1-687): T1 sequence (P21980 1-687)
Experimental: HK2 cells were plated onto fibronectin and incubated for 2 hours in the presence of 0.1M biotin cadaverine with either 4 ng/μl of human anti-TG2 antibody (AB1) (part A), 4 ng/μl of human anti-TG2 antibody (DC1) (part B) or 400 μM of the site-specific pan TG inhibitor 1,3-Dimethyl-2-[(2-oxo-propyl)thio]imidazolium chloride. […] Changes in optical density were measured at 450 nm in a 96 well plate reader. Data represents mean OD at 450 nm corrected to 1 mg of cell protein. n=6 wells per experimental group.
Extracellular TG activity was measured by modified cell ELISA. HK-2 epithelial cells were harvested using 0.1M EDTA or 0.25% trypsin/EDTA and plated at a density of 8×10^4 cells/well in serum free medium onto a 96 well plate that had been coated overnight with 100 μl/well of fibronectin (5 μg/ml in 50 mM Tris-HCl pH 7.4) (Sigma, Poole UK). Cells were allowed to attach for 2.5 h at 37° C. in the presence of the 0.1 mM biotin cadaverine [N-(5 amino pentyl biotinamide) trifluoroacetic acid] (Molecular Probes, Eugene Oreg., USA). Plates were washed twice with 3 mM EDTA/PBS and cells removed with 0.1% (w/v) deoxycholate in 5 mM EDTA/PBS. The supernatant was collected and used for protein determination. […] The reaction was stopped with 50 μl 2.5 M H2SO4 and the absorbance read at 450 nm.

[3] = target: T3, TG2 activity in HepG2 cell homogenate (Homo sapiens, UniProt P21980); assay: 3H putrescine incorporation TG activity assay in HepG2 cell homogenate; assay type: biochemical
T3 construct: endogenous in cells; host or cells: HepG2
T3 sequence (P21980 1-687): T1 sequence (P21980 1-687)
Experimental: A: Hep2G cells were lysed and 45 ug of protein mixed with 750 ng of IgG from AB1, DH2, DD9, BB7, DC1 and EH6 for 20 minutes. This was subsequently assayed using the ^3H Putrescine incorporation TG activity assay with sampling over 1 hour. The rate of reaction was calculated and expressed as a percentage of the same lysate incubated with a random antibody (MAB002). Data represents the mean percentage inhibition ±SEM from 2 separate experiments done in duplicate. *p<0.05
HepG2 cells were kindly supplied by Richard Ross (University of Sheffield). Cells were routinely grown at 37° C. in a 95% humidified atmosphere of 5% CO2 in DMEM/4.5 g per liter glucose supplemented with 10% foetal calf serum (FCS), 100 IU penicillin and 100 μg/ml streptomycin, 2 mM I-glutamine (all GIBCO). Two million cells were seeded on a 10 cm dishes and grown for 48 hours. Cells were lysed in 250 μl of STE buffer (0.32M sucrose, 5 mM Tris, 1 mM EDTA containing protease inhibitors Phenylmethylsulphonyl fluoride (1 mM), benzamidine (5 mM), and leupeptin (10 μg/ml) and sonicated on ice to produce a cell lysate usable in TG2 activity assay.
The same protocol was used to assess TG inhibition in cell lysates by replacing the 25 μl of recombinant protein with 25 μl of cell lysate.

Molecule | hybridoma supernatant ability to inhibit TG2 activity [1] | further results
B1 | able to inhibit TG2 activity | IC50 against human TG2 ([1]; amount of IgG in the reaction that would inhibit 1 ng of TG2, 100 ng human TG2): 0.011 µg/mL; inhibition of extracellular TG activity ([2]; 4 ng/ul in the culture media): 55%; inhibition of extracellular TG2 in human HK-2 cells (in words) ([2]; applied to the culture media): able to inhibit TG2 successfully; inhibition of TG2 in human Hep2G cells (in words) [3]: able to inhibit TG2 successfully
B2 | able to inhibit TG2 activity | –
B3 | able to inhibit TG2 activity | –
B4 | able to inhibit TG2 activity | –
B5 | able to inhibit TG2 activity | –
B6 | able to inhibit TG2 activity | inhibition of TG2 activity in HepG2 homogenate ([3]; 0.5 μg of antibody, 45 ug lysate protein): 90%
